The target of one test is T1, huKv1.3 (Homo sapiens, UniProt P22001).
T1 construct: host or cells: CHO
The test is described as follows: QPatch automated whole-cell patch-clamp, CHO cells stably expressing huKv1.3 (Example 8). The class given is cell-based. The procedure: (§1) Knottin Kv 1.3 and ASIC1a blockers expressed in the KnotBody format (see examples 6 and 7) were tested for their ability to inhibit the function of the ion channel targets. The effect of these KnotBodies on cells expressing the human Kv 1.3 (huKv1.3) or human ASIC1a channels was assessed using QPatch automated whole-cell patch-clamp electrophysiology (Sophion).
For the testing of Kv1.3, CHO cells stably expressing huKv1.3 (Charles River Lab) were analysed using the QPatch electrophysiology assay in the presence or absence of the KnotBody fusions or the antibody isotypes (negative) controls. Internal and external physiological solutions were freshly prepared prior to the assay. The extracellular solution contained 145 mM NaCl, 4 mM KCl, 2 mM CaCl2, 1 mM MgCl2, 10 mM HEPES and 10 mM glucose; the pH was adjusted to 7.4 with NaOH; the osmolarity was ~ 305 mOsm/L. The intracellular solution contained: KF (120 mM), KCl (20 mM), HEPES (10 mM) and EGTA (10 mM); the pH was adjusted to 7.2 with KOH; osmolarity was ~ 320 mOsm/L.
A series of depolarising voltage (channel activating) pulses were used to monitor the channel currents upon adding control (extracellular solution) to define a control baseline of current activity. To these measured control currents ascending concentrations of KnotBodies or parental antibody isotypes (control molecules) were applied to the external bathing solution (2.2 µM - 0.5 nM, diluted in the extracellular solution). KnotBodies KB_A12 and KB_A07 (EETI-II fusions) were used as isotype controls for the testing. From a holding voltage of -80 mV a depolarising, activating voltage pulses of +30 or +80 mV were applied for 300 ms, every 5 or 10 seconds. The elicited, maximum outward current values measured during the activating step for each solution exchange period were averaged (n = 3 - 8 for each concentration applied) and plotted as concentration-response curves. KB_A07_ShK, KB_A12_ShK and KB_A07_Kaliotoxin (KTX) fusion proteins all inhibited the huKv1.3 currents in a concentration dependent manner with IC50S of approximately 20 nM, 40 nM and 900 nM respectively.
(In general: The patch-clamp technique gives a direct electrical read-out from membranes.)

The target in another test is T2, huASIC1a (Homo sapiens, UniProt P78348).
T2 construct: host or cells: HEK293
T2 sequence (P78348 1-528): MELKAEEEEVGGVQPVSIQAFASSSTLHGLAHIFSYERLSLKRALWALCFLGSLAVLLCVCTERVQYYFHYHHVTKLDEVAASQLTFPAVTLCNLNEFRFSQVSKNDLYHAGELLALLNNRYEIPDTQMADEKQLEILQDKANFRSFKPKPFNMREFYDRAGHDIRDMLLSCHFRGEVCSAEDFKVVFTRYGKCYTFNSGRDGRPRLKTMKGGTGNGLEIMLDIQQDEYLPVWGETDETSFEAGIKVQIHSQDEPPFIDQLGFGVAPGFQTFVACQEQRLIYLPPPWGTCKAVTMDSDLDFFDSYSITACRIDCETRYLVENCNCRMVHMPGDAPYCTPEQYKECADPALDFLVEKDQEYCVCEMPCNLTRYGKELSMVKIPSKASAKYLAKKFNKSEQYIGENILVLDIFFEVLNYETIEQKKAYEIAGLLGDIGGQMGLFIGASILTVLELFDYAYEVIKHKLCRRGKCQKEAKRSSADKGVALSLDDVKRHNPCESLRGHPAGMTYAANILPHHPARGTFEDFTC
Put plainly: QPatch electrophysiology, HEK293 cells stably expressing huASIC1a. The settings on record: ASIC1a current at pH 6.0 after 15-20 minutes KnotBody pre-incubation, 2.3-6.6 µM. In kind it is cell-based. On the procedure:
as §1
To functionally assess the ASIC1a KnotBodies, HEK293 cells stably expressing huASIC1a (Sophion) were analysed using a QPatch electrophysiology assay in the presence or absence of the KnotBody fusions (using KB_A12 as a recipient and replacing the original EETI-II donor as shown in Table 8). The “parental” KB_A12 with the EETI-II donor was used as a negative control. Internal and external physiological solutions were freshly prepared prior to the assay. The extracellular solution contained 145 mM NaCl, 4 mM KCl, 2 mM CaCl2, 1 mM MgCl2, 10 mM HEPES and 10 mM glucose; the pH was adjusted to 7.4 with NaOH (for control, resting-state pH) or 6.0 with MES (for acidic, activating-state pH); the osmolarity was ~ 305 mOsm/L. The intracellular solution contained: CsF (140 mM), HEPES (10 mM), NaCl (10 mM) and EGTA/CsOH (1 mM/5 mM); the pH was adjusted to 7.3 with CsOH; osmolarity was ~ 320 mOsm/L.
Throughout ASIC 1a recordings the recording cell membrane voltage was clamped at -60 mV. ASIC1a baseline control currents were elicited by applying external solution at activating pH 6.0 for 3000 ms. This activating pH application was repeated three further times, giving four baseline control ASIC1a currents. The recording cells were then pre-incubated with KnotBody diluted in external solution at pH 7.4 for 15-20 minutes. Following this KnotBody pre-incubation the same concentration of KnotBody in external solution at activating pH 6.0 was applied to the cell recording.
At the end of each KnotBody incubation and subsequent ASIC1a current activation, a full blocking concentration (300 nM) of the ASIC1a knottin inhibitor PcTx1 (positive control) was perfused onto the cell recording and a final activating pH 6.0 external solution was applied. The percentage remaining signal between activating pH 6.0 baseline (i.e. pre-KnotBody) and post-KnotBody incubation was determined.

Where [1] appears, read: Kv1.3 channels, IgG KnotBody, Table 11A.
The mark [2] stands for this setting: huKv1.3 currents, text of Example 8, approximately.

Where a chain is given by its changes, count along the chain named.

What is called IC50 is the concentration that gives 50% inhibition.

T1 sequence (P22001 whole entry): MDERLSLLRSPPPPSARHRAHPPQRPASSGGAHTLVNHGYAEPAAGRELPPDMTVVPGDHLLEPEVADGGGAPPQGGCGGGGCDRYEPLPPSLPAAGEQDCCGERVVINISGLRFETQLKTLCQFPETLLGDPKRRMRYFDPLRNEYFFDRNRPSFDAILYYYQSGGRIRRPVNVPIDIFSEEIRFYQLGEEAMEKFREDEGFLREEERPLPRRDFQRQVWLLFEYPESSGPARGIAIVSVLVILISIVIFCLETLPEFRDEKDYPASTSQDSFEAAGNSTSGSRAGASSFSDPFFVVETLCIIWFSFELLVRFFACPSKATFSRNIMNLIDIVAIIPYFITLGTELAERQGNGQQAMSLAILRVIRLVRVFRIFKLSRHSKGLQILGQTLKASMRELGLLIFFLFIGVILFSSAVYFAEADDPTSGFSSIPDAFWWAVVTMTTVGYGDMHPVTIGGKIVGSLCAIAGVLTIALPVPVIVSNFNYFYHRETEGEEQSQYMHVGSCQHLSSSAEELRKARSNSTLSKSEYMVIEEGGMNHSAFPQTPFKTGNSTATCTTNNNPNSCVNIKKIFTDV

B1: KB_A07_ShK: ShK toxin in VL CDR2 of KB_A07, IgG1 (antibody, V domains shown)
VH: EVQLVESGGGLVRPGGSLRLSCAASGFTFSSYAMSWVRQAPGKGLEWVSAISGSGGSTYYADSVKGRFTISRDNTKNSLYLQMTSLRADDTAFYYCVKDFGPGYGTGWFDYWGPGTLVTVSS
VL: DIQMTQSPSSLSASVGDRVTITCRASQSISSYLNWYQQKPGKAPKLLIYAAGVRSCIDTIPKSRCTAFQCKHSMKYRLSFCRKTCGTCSRSGVPSRFSGSGSGTDFTLTISSLQPEDFATYYCQQGASPPYTFGQGTKVEIKR
In the case of B1, the IC50 with huKv1.3 (setting [1]) is 40 nM; with huKv1.3 (setting [2]), ~20 nM.

B2: KB_A12_Mba-2: Mambalgin-2 in VL CDR2 of KB_A12 (antibody)
VH: B1 VH
VL: QSVLTQPPSVSEAPRQRVTITCSGSSSNIGNNAVNWYQQLPGKAPKLLIYAAGRLKCFQHGKVVTCHRDMKFCYHNTGMPFRNLKLILQGCSSSCSETENNKCCSTDRCNKANSGVSDRFSAAKSGTSASLAINGLRSEDEADYYCAAWDDSLNGYVFGTGTKLTVLGQP
B2: the “% current remaining” value with huASIC1a is “same level of current as the KB_A12 negative control”; with huASIC1a (listed as KB A12 Mba-2), 72.4%.

B3: KB_A12_PcTx1: PcTx1 in VL CDR2 of KB_A12 (antibody)
VH: B1 VH
VL: QSVLTQPPSVSEAPRQRVTITCSGSSSNIGNNAVNWYQQLPGKAPKLLIYAAGREDCIPKWKGCVNRHGDCCEGLECWKRRRSFEVCVPKTPKTANSGVSDRFSAAKSGTSASLAINGLRSEDEADYYCAAWDDSLNGYVFGTGTKLTVLG
For B3, the “% current remaining” value with huASIC1a worked out at 4.8%.

B4: KB_A12_Mba-1: Mambalgin-1 in VL CDR2 of KB_A12 (antibody)
VH: B1 VH
VL: B2 VL with F58Y
For B4, the results for the “% current remaining” value in the test with huASIC1a and with huASIC1a (listed as KB A12 Mba-1) were “same level of current as the KB_A12 negative control” and 69.2%, respectively.

B5: KB_A07_PcTx1: PcTx1 in VL CDR2 of KB_A07 (antibody, V domains shown)
VH: B1 VH
VL: DIQMTQSPSSLSASVGDRVTITCRASQSISSYLNWYQQKPGKAPKLLIYAAGVEDCIPKWKGCVNRHGDCCEGLECWKRRRSFEVCVPKTPKTSRSGVPSRFSGSGSGTDFTLTISSLQPEDFATYYCQQGASPPYTFGQGTKVEIKR
Regarding B5, the results for the “% current remaining” value in the test with huASIC1a and in the test with huASIC1a (listed as KB A07 PcTx1) were 4.8% and 6.2%, respectively.

B6: KB_A07_KTX: kaliotoxin in VL CDR2 of KB_A07, IgG1 (antibody, V domains shown)
VH: B1 VH
VL: DIQMTQSPSSLSASVGDRVTITCRASQSISSYLNWYQQKPGKAPKLLIYAAGVGVEINVKCSGSPQCLKPCKDAGMRFGKCMNRKCHCTPKSRSGVPSRFSGSGSGTDFTLTISSLQPEDFATYYCQQGASPPYTFGQGTKVEIKR
On to B6, for which the IC50 in the test with huKv1.3 (setting [1]) is 900 nM; with huKv1.3 (setting [2]) it was ~900 nM.

(Values after US20230331827A1, “POTASSIUM CHANNEL INHIBITORS” (priority 2017, published 2023).)
